Test in all cases: competition; competition TR-FRET
What all share (settings): tags: C-terminal 6xHis (Sino Biological)
On the technique in general: TR-FRET usually uses a lanthanide donor and a delayed reading to cut background.

Data set [1] has as its target T1, Interleukin-8 (IL8, CXCL8), C-terminal His-tagged (Homo sapiens, UniProt P10145 SEQ:1-72). The method, then: (§1) Activity of each of these variants were tested using a time resolved competition TR-FRET assay in which the labeled parent Aptamer 3 was competed with increasing concentrations of unlabeled variants for binding to IL8 (FIG. 14). Briefly, 2-fold dilutions of thermally equilibrated aptamers were made in TR-FRET Buffer (50 mM MOPS, pH 7.4, 125 mM NaCl, 5 mM KCl, 50 μM CHAPS, 0.1 mg/mL BSA, 1 mM CaCl₂, and 1 mM MgCl₂). 5 μL of aptamer or control solution was added to 5 μl mix of 10 nM C-terminal His-tagged-IL8, 60 nM ALEXA FLUOR® 647-labeled Aptamer, and 5 nM anti-His-Eu (Perkin Elmer) in a black wall low volume 384 well plate (Greiner). For control, 5 μl of 1000-fold excess of unlabeled parent aptamer or 5 μl TR-FRET buffer alone was added to the mix of ALEXA FLUOR® 647-labeled aptamer, His-IL8, and anti-His-Eu. The plate was covered with a plate seal and subsequently incubated in the dark for 1 hour at room temperature. The plate was read on a Biotek CYTATION™ 5 plate reader. Samples were excited at 330 nm and fluorescent values were collected at 665 nm. Data analysis was performed by subtracting the background value and plotting as percent inhibition, normalized to baseline in the absence of competitor. The values were fit by [Inhibitor] vs. response—Variable slope (four parameters) using GraphPad Prism Version 7.0 and then normalized to aptamer control to obtain an IC₅₀ relative to parent aptamer. Data is presented as log values of relative IC₅₀.
To better understand the sequence requirements and confirm the stem structures of members of the Aptamer 8 family as determined from sequence covariation analysis from both the primary and secondary (degenerate) selections, a series of variants which included mutations and deletions to the predicted stems (Tables 45 and 46) were synthesized and screened. Activity of each of these variants was tested using a competition TR-FRET assay in which the labeled parent Aptamer 8 was competed with increasing concentration of unlabeled variants for binding to IL8 as described in Example 11.

The target in data set [2] is T1, Interleukin-8 (IL8, CXCL8), C-terminal …. As for the experimental part: as §1, with “To better understand the sequence requirements and to confirm the stem structures of members of the Aptamer 3 family as determined from sequence covariation analysis from both the primary and secondary (degenerate) selections, a series of variants which included mutations and deletions to the predicted stems were synthesized and screened (Table 24). Activity” for “Activity”
This is another data set of the same source.

The target is the same in data set [3]. As for the experimental part: as §1, with “To better understand the sequence requirements and to confirm the stem structures of members of the Aptamer 3 family as determined from sequence covariation analysis from both the primary and secondary (degenerate) selections, a series of variants which included mutations and deletions to the predicted stems were synthesized and screened (Table 24). Activity” for “Activity”
To test the effects of variation in this region on aptamer function, aptamer clones from Round 5 of the degenerate selection which had mutations in loop L3 were synthesized (Table 26). All of the compounds were tested in the competition TR-FRET assay.
This is another data set of the same source.

B1: Aptamer 217 (ssRNA)
RNA: CGCUGGGAAAUGUGAGAUGGGUUGGCG
modifications: 2'-F G, 2'-OMe A/C/U, 5' C6NH2, 3' idT
Take B1: in data set [1], the binding result is “binds”.

B2: Aptamer 32 (ssRNA)
RNA: CGGUGGGAAAUGUGAGAUGGGUUGCCG
modifications: 2'-F G, 2'-OMe A/C/U, 5' C6NH2, 3' idT
For B2, the binding result in data set [1] (stem-loop) is “binds”.

B3: Aptamer 155 (ssRNA)
RNA: CGGUGGGAACCGUGAGAUGGGGUGCCG
modifications: 2'-F G, 2'-OMe A/C/U, 5' C6NH2, 3' idT
Consider B3, for which the binding signal in data set [1] is > 10 fold worse than Aptamer 8.

B4: Aptamer 208 (ssRNA)
RNA: UGCCGACGGUAGAUUACGGGUAGAGUGACCGCGGCU
modifications: 2'-F G, 2'-OMe A/C/U, 5' C6NH2, 3' idT
Consider B4, for which the binding result in data set [2] was “binds”.

B5: Aptamer 210 (ssRNA)
RNA: UGGCGACGGUAGAUUACGGGUAGAGUGACCGCGCCU
modifications: 2'-F G, 2'-OMe A/C/U, 5' C6NH2, 3' idT
As for B5, the binding result in data set [2] is reported as “binds”.

B6: Aptamer 121 (ssRNA)
RNA: CGGUGGGACACCCGAGAUGGGUGGCCG
modifications: 2'-F G, 2'-OMe A/C/U, 5' C6NH2, 3' idT
With B6, in data set [1], the binding signal is > 10 fold worse than Aptamer 8.

B7: Aptamer 118 (ssRNA)
RNA: CGGUGGGACACGCGAGAUGGGUGGCCG
modifications: 2'-F G, 2'-OMe A/C/U, 5' C6NH2, 3' idT
Turning to B7, the binding signal in data set [1] is > 10 fold worse than Aptamer 8.

B8: Aptamer 114 (ssRNA)
RNA: CGGUGGGAAAUUUGAGAUGGGUUGCCG
modifications: 2'-F G, 2'-OMe A/C/U, 5' C6NH2, 3' idT
In the case of B8, the binding signal in data set [1] is > 10 fold worse than Aptamer 8.

B9: Aptamer 215 (ssRNA)
RNA: CGGUGGGAAAUGUGAGAUGGGAUGCCG
modifications: 2'-F G, 2'-OMe A/C/U, 5' C6NH2, 3' idT
Take B9: in data set [1], the binding signal is > 10 fold worse than Aptamer 8.

B10: Aptamer 120 (ssRNA)
RNA: CGGUGGGAAACCCGAGAUGGGUUGCCG
modifications: 2'-F G, 2'-OMe A/C/U, 5' C6NH2, 3' idT
As to B10, the binding signal in data set [1] is > 10 fold worse than Aptamer 8.

B11: Aptamer 113 (ssRNA)
RNA: CGGUGGGAAAUAUGAGAUGGGUUGCCG
modifications: 2'-F G, 2'-OMe A/C/U, 5' C6NH2, 3' idT
As to B11, the binding signal in data set [1] was > 10 fold worse than Aptamer 8.

B12: Aptamer 117 (ssRNA)
RNA: CGGUGGGAAACGCGAGAUGGGUUGCCG
modifications: 2'-F G, 2'-OMe A/C/U, 5' C6NH2, 3' idT
As to B12, the binding signal in data set [1] is > 10 fold worse than Aptamer 8.

B13: Aptamer 119 (ssRNA)
RNA: CGGUGGGAAACCUGAGAUGGGUUGCCG
modifications: 2'-F G, 2'-OMe A/C/U, 5' C6NH2, 3' idT
As for B13, in data set [1], the binding signal is > 10 fold worse than Aptamer 8.

B14: Aptamer 100 (ssRNA)
RNA: UGAUGACGGUAGAUUAUGGGAAGUGUGACCGCAUCU
modifications: 2'-F G, 2'-OMe A/C/U, 5' C6NH2, 3' idT
As to B14, the binding signal in data set [3] is > 10 fold better than Aptamer 3.

B15: Aptamer 110 (ssRNA)
RNA: UGAUGACGGUAGAUUUCGGGAAGUGUGACCGCAUCU
modifications: 2'-F G, 2'-OMe A/C/U, 5' C6NH2, 3' idT
In the case of B15, the binding result in data set [3] was “binds”.

B16: Aptamer 154 (ssRNA)
RNA: CGGUGGGAACUGUGAGAUGGGGUGCCG
modifications: 2'-F G, 2'-OMe A/C/U, 5' C6NH2, 3' idT
Regarding B16, in data set [1], the binding signal is > 10 fold worse than Aptamer 8.

B17: Aptamer 115 (ssRNA)
RNA: CGGUGGGAAAUGCGAGAUGGGUUGCCG
modifications: 2'-F G, 2'-OMe A/C/U, 5' C6NH2, 3' idT
Regarding B17, in data set [1], the binding signal was > 10 fold worse than Aptamer 8.

B18: Aptamer 218 (ssRNA)
RNA: CGAUGGGAAAUGUGAGAUGGGUUGUCG
modifications: 2'-F G, 2'-OMe A/C/U, 5' C6NH2, 3' idT
Turning to B18, in data set [1], the binding result is listed as “binds”.

B19: Aptamer 183 (ssRNA)
RNA: UCAUGACGGUAGAUUACGGGUAGAGUGACCGCAUGU
modifications: 2'-F G, 2'-OMe A/C/U, 5' C6NH2, 3' idT
Turning to B19, in data set [2], the binding result is listed as “binds”.

B20: Aptamer 109 (ssRNA)
RNA: UGAUGACGGUAGAUAACGGGUAGUGUGACCGCAUCU
modifications: 2'-F G, 2'-OMe A/C/U, 5' C6NH2, 3' idT
In the case of B20, the binding result in data set [3] is on record as “binds”.

B21: Aptamer 104 (ssRNA)
RNA: UGAUGACGGUAGAUUAAGGGUAGUGUGACCGCAUCU
modifications: 2'-F G, 2'-OMe A/C/U, 5' C6NH2, 3' idT
As for B21, the binding result in data set [3] is given as “binds”.

B22: Aptamer 105 (ssRNA)
RNA: UGAUGACGGUAGAUUACGGGUUGUGUGACCGCAUCU
modifications: 2'-F G, 2'-OMe A/C/U, 5' C6NH2, 3' idT
On to B22, for which the binding result in data set [3] is on record as “binds”.

B23: Aptamer 97 (ssRNA)
RNA: UGAUGACGGUAGAUUACGGGGAGUGUGACCGCAUCU
modifications: 2'-F G, 2'-OMe A/C/U, 5' C6NH2, 3' idT
On to B23, for which, in data set [3], the binding result is “binds”.

B24: Aptamer 96 (ssRNA)
RNA: UGAUGACGGUAGAUUACGGGCAGUGUGACCGCAUCU
modifications: 2'-F G, 2'-OMe A/C/U, 5' C6NH2, 3' idT
In the case of B24, the binding result in data set [3] is “binds”.

B25: Aptamer 209 (ssRNA)
RNA: UGCUGACGGUAGAUUACGGGUAGAGUGACCGCAGCU
modifications: 2'-F G, 2'-OMe A/C/U, 5' C6NH2, 3' idT
Turning to B25, in data set [2], the binding result is recorded as “binds”.

B26: Aptamer 98 (ssRNA)
RNA: UGAUGACGGUAGAUUACGGGAAGUGUGACCGCAUCU
modifications: 2'-F G, 2'-OMe A/C/U, 5' C6NH2, 3' idT
As to B26, the binding result in data set [3] is recorded as “binds”.

B27: Aptamer 103 (ssRNA)
RNA: UGAUGACGGUAGAUUACGGGAAGAGUGACCGCAUCU
modifications: 2'-F G, 2'-OMe A/C/U, 5' C6NH2, 3' idT
For the molecule B27, the binding result in data set [3] was “binds”.

B28: Aptamer 108 (ssRNA)
RNA: UGAUGACGGUAGAUAACGGGUAGAGUGACCGCAUCU
modifications: 2'-F G, 2'-OMe A/C/U, 5' C6NH2, 3' idT
In the case of B28, the binding result in data set [3] is “binds”.

B29: Aptamer 95 (ssRNA)
RNA: UGAUGACGGUAGAUUCCGGGUAGUGUGACCGCAUCU
modifications: 2'-F G, 2'-OMe A/C/U, 5' C6NH2, 3' idT
Regarding B29, the binding result in data set [3] is reported as “binds”.

B30: Aptamer 111 (ssRNA)
RNA: UGAUGACGGUAGAUUAUGGGUAGUGUGACCGCAUCU
modifications: 2'-F G, 2'-OMe A/C/U, 5' C6NH2, 3' idT
Turning to B30, the binding result in data set [3] is given as “binds”.

B31: Aptamer 184 (ssRNA)
RNA: UGAUCACGGUAGAUUACGGGUAGAGUGACCGGAUCU
modifications: 2'-F G, 2'-OMe A/C/U, 5' C6NH2, 3' idT
For the molecule B31, the binding result in data set [2] is given as “binds”.

B32: Aptamer 101 (ssRNA)
RNA: UCAUGACGGUAGAUUUCGGGUAGUGUGACCGCAUGU
modifications: 2'-F G, 2'-OMe A/C/U, 5' C6NH2, 3' idT
Consider B32, for which, in data set [3], the binding result is reported as “binds”.

B33: Aptamer 102 (ssRNA)
RNA: UCAUGACGGUAGAUUACGGGUAGAGUGACCGCAUGU
modifications: 2'-F G, 2'-OMe A/C/U, 5' C6NH2, 3' idT
Take B33: the binding result in data set [3] was “binds”.

B34: Aptamer 106 (ssRNA)
RNA: UGAUGACGAUAGAUUUCGGGUAGUGUGAUCGCAUCU
modifications: 2'-F G, 2'-OMe A/C/U, 5' C6NH2, 3' idT
In the case of B34, in data set [3], the binding result is on record as “binds”.

B35: Aptamer 216 (ssRNA)
RNA: CUGUGGGAAAUGUGAGAUGGGUUGCAG
modifications: 2'-F G, 2'-OMe A/C/U, 5' C6NH2, 3' idT
Take B35: the binding result in data set [1] is on record as “binds”.

B36: Aptamer 38 (ssRNA)
RNA: GAUGACGGUAGAUUACGGGUAGAGUGACCGCAUC
modifications: 2'-F G, 2'-OMe A/C/U, 5' C6NH2, 3' idT
With B36, the binding result in data set [2] (stem-loop) was “binds”.

B37: Aptamer 92 (ssRNA)
RNA: GGCGACGGUAGAUUACGGGUAGAGUGACCGCGCC
modifications: 2'-F G, 2'-OMe A/C/U, 5' C6NH2, 3' idT
On to B37, for which the binding result in data set [2] (stem-loop) is listed as “binds”.

B38: Aptamer 112 (ssRNA)
RNA: CGGUGGGAAAUCUGAGAUGGGUUGCCG
modifications: 2'-F G, 2'-OMe A/C/U, 5' C6NH2, 3' idT
As for B38, the binding signal in data set [1] is > 10 fold worse than Aptamer 8.

The record behind these values is US20210230599, “STEM-LOOP COMPOSITIONS AND METHODS FOR INHIBITING INTERLEUKIN-8” (VITRISA THERAPEUTICS, INC., published 2021).
